2 molecules from article PMC2987445 (Cancer biology & therapy, 2010) can be followed below.

For data set [1], the system named is Akt signaling (pAkt, S6 protein, 4EBP-1) in LNCaP and T47D cells. In words: Western blot of Akt pathway phosphorylation in LNCaP and T47D cells. As to conditions: 3 hrs.
The target in a further data set is Akt1 (Mus musculus, UniProt P31750). Kind of data set: Ex vivo IP-kinase assay of Akt1 in mouse tissues. As to conditions: exogenous insulin ip.
The target in another data set is Akt3 (Mus musculus, UniProt Q9WUA6). In words: Ex vivo IP-kinase assay of Akt3 in mouse tissues. As to conditions: exogenous insulin ip (1 or 5 μg).
Data set [2] in a line: Blood glucose in nude mice. Type of data set: in vivo, mouse. The conditions noted are these: 40 μg insulin ip in animals treated with 100 mpk AKTi.
The nature of data set [3]: Plasma insulin in nude mice. As to conditions: 30 min after injection; for plasma insulin levels increase: no AKTi.

Sequence of Akt3 (Q9WUA6 whole entry): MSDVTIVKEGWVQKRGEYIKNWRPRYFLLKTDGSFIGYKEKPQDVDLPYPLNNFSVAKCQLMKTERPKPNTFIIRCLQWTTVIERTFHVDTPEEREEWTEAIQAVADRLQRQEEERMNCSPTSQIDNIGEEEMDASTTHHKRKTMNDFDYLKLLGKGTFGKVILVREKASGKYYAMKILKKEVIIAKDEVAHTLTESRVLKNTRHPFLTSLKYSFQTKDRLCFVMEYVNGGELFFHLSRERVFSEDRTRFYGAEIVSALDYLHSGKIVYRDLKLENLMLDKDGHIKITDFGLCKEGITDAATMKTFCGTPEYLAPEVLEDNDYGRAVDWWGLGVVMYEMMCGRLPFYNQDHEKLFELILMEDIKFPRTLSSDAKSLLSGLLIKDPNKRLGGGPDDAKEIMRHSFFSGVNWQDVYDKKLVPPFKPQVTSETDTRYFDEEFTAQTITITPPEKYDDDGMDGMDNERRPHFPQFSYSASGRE
Sequence of Akt1 (P31750 whole entry): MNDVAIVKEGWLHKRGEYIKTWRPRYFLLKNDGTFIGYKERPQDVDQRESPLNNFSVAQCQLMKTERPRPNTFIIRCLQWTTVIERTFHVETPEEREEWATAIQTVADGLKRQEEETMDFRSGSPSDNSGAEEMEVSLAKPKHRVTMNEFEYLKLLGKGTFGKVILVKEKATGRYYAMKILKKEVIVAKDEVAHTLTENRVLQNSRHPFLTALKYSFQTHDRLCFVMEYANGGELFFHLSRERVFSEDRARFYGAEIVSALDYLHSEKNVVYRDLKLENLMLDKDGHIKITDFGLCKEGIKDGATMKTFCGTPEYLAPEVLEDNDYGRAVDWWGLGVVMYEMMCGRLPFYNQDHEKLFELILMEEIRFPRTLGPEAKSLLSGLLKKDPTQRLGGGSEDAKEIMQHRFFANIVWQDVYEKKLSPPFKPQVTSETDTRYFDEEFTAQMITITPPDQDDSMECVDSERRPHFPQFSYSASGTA

Regarding `Cc1n[nH]c2ccc(-c3cncc(OC[C@@H](N)Cc4c[nH]c5ccccc45)c3)cc12` [A443654], in data set [1], the “blocking phosphorylation of S6 protein and 4EBP-1” value is “equally effective at blocking phosphorylation”; the “hyper-phosphorylation of Akt” value is recorded as “feed-back hyper-phosphorylation”.

Regarding “Insulin: Recombinant insulin obtained from Invitrogen, injected intraperitoneally”, the “induction of Akt1 activity in liver” value with Akt1 was about 10 fold. Also, the “maximal increase of Akt3 activity in lung” value with Akt3 turned out to be 40%. The “effect on glucose levels” value in data set [2] is on record as “only a minor effect on glucose levels”. The “plasma insulin levels increase” value in data set [3] (1 μg insulin ip) is on record as “about 20 fold”; in data set [3] (5 μg insulin ip), about 100 fold. Besides, the “Insulin, plasma” value in data set [3] (insulin 5.0 μg per mouse ip) was 77 ± 21 ng/mL.
